Here are results for eleven substances from IntAct's records for PubMed 26635368.

In one experiment the target is spre1_human SPRED1 (UniProt Q7Z699).
Sequence of spre1_human SPRED1 (Q7Z699 whole entry): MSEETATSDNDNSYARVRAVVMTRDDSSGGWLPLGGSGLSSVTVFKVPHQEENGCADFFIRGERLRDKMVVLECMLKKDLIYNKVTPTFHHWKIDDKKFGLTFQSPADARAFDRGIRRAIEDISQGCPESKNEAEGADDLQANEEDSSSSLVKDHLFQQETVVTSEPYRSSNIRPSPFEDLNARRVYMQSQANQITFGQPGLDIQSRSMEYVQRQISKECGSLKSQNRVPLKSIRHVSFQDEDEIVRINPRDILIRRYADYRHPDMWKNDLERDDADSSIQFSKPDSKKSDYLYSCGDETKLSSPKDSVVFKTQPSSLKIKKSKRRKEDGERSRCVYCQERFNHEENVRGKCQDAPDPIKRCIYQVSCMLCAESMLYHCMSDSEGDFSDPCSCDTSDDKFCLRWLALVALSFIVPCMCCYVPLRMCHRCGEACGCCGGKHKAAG
For the substance “Neurofibromin (Homo sapiens), P21359 R1276P”, the “effect of a mutation on the interaction” value is “with no effect”.
Same read-out and setting: the same measure for “Neurofibromin (Homo sapiens), P21359 D1217G”: “decreasing interaction strength”; for “Neurofibromin (Homo sapiens), P21359 L1511P”: “decreasing interaction strength”.

Another experiment has the same target. This is another data set of the same source.
With “Neurofibromin (Homo sapiens), P21359 G1519E”, the “effect of a mutation on the interaction” value is listed as “with no effect”.
Still for that read-out and setting: for “Neurofibromin (Homo sapiens), P21359 L1208W” the value was “decreasing interaction strength”; for “Neurofibromin (Homo sapiens), P21359 L1211R”, “with no effect”; for “Neurofibromin (Homo sapiens), P21359 D1217G”, “disrupting interaction strength”.
The same measure, in the same setting: the same measure for “Neurofibromin (Homo sapiens), P21359 R1204L”: “decreasing interaction strength”; for “Neurofibromin (Homo sapiens), P21359 R1204W”: “decreasing interaction strength”.
With “Neurofibromin (Homo sapiens), P21359 R1204G”, the “effect of a mutation on the interaction” value was “with no effect”.
The same measure, in the same setting: for “Neurofibromin (Homo sapiens), P21359 A1202S” the value was “with no effect”; for “Neurofibromin (Homo sapiens), P21359 Q1515R”, “with no effect”.
